Test results as given in US20260028677A1, “Compositions and Methods for Modulating Genetic Drivers” (Flagship Pioneering Innovations VII, LLC, priority 2022, published 2026).
“Also recorded” adds a separate entry of the source.

B1: SEQ ID NO: 5391: novel, un-annotated target protein (predicted TM protein) carrying a TCGA mutation site, over-expressed from pcDNA3.1 plasmid (protein, listed as Homo sapiens)
chain: LLLLIIWVRVTFMSCSTHREGLQLRYSLLKPARPRTHREEETTPDAPPLRAVTLTVKVCGITPEVRETTNPPEETPDASEHLKEQTLDTPSLRTETPRQFAASFLKAVRPRTHQFWTQKDLSRLRKWQAIYEEGRDSKRWSQVL
B2: SEQ ID NO: 5391_P31L: mutant version of SEQ ID NO: 5391 that contains the TCGA P31L mutation (protein, listed as Homo sapiens)
chain: LLLLIIWVRVTFMSCSTHREGLQLRYSLLKLARPRTHREEETTPDAPPLRAVTLTVKVCGITPEVRETTNPPEETPDASEHLKEQTLDTPSLRTETPRQFAASFLKAVRPRTHQFWTQKDLSRLRKWQAIYEEGRDSKRWSQVL
B3: SEQ ID NO: 4538: target protein, extracellular transmembrane protein, over-expressed from plasmid (protein, listed as Homo sapiens)
chain: LARLFLRPRGPRSPIIQFRRVTGAAVASQGAGSLSPALLPLAPSPRPRRAGLRGQGPSGEGYHLTWKKMSSLEKKHSNVIVQNSLNIHNR
B4: SEQ ID NO: 5392: target protein, extracellular transmembrane protein, over-expressed from plasmid (protein, listed as Homo sapiens)
chain: MVEKSHPSSLPTLPQPLNHCPETYMLLSAAPSGASQLLSTLTLFLKKHRMDIRTISLRMLLSHTGKLAL
B5: SEQ ID NO: 4335: target protein, extracellular transmembrane protein, over-expressed from plasmid (protein, listed as Homo sapiens)
chain: MNLNPRLRLQVISFHPHPKALAVTLLPALTQSLCLCMASCVYSGPKGFLFLFFPQTAQEKHMKNIT

Legend:
[1] = tested on: colon cancer cell line HCT116 cells; assay: WST-1 cell proliferation assay, transient over-expression in HCT116; assay type: cell-based; details: transient over-expression from pcDNA3.1 plasmid with Lipofectamine 3000 in HCT116; WST-1 48 hours after transfection; high serum conditions; vs control
Procedure: WST-1 assay on HCT-116 to examine their cell viability and growth when transiently over-expressed SEQ ID NO: 5391 using Lipofectamine 3000. After plasmid transfection, cell proliferation was measured 48 hours later using WST-1 assay. Data are presented as the mean±SD of three independent experiments performed in triplicate.
Protein overexpression plasmids encoding Target Proteins or controls were transiently transfected into multiple cell lines. 24 hours later proliferation was measured using WST-1 assay.
(§1) Seed the cells of interest into 96-well plate at a density of 4,000 cells per well in 100 μL of cell culture medium. Incubate the cells in a humidified incubator at 37° C. with 5% CO2 for 24 hours. Dilute the Lipofectamine 3000 (Thermo Fisher) in Opti-MEM medium (Thermo Fisher) to a final concentration of 30 μL/mL. […] Measure the absorbance at 450 nm using a microplate reader. A reference wavelength of 650 nm can be used to correct for background absorbance. Calculate the percentage of viable cells in each well by subtracting the absorbance of the blank (medium only) from the absorbance of each well and expressing the results as a percentage of the control group.

[2] = tested on: lung cancer (A549), liver cancer (HepG2), and colon cancer (HCT-116) cells; assay: WST-1 cell proliferation assay, transient over-expression in multiple cell lines; assay type: cell-based; details: genetic overexpression in multiple cell lines (A549, HepG2, HCT-116); WST-1 48 hours after transfection; vs pcDNA3.1-Myc negative control
Procedure: FIGS. 2A-2C show analysis of cell viability using the WST-1 assay on lung cancer (A549), liver cancer (HepG2), and colon cancer (HCT-116). Cells were transfected with SEQ ID NO: 4538, SEQ ID NO: 5392, and SEQ ID NO: 4335 individually. pcDNA3.1-Myc tagged was used for negative control. After plasmid transfection, cell proliferation was measured 48 hours later using WST-1 assay. Data are presented as the mean±SD of three independent experiments performed in triplicate. FIG. 2A) WST-1 results in HCT-116 cells. Top: low serum, Bottom: High serum. FIG. 2B) WST-1 results in HepG2 cells. Top: low serum, Bottom: High serum. FIG. 2C) WST-1 results in A549 cells. Top: low serum, Bottom: High serum.
Experimental Design: Protein overexpression plasmids encoding Target Proteins or controls were transiently transfected into multiple cell lines. 24 hours later proliferation was measured using WST-1 assay.
as §1, with “Materials and Methods: Seed” for “Seed”

Row | Molecule | proliferation of colon cancer cells (WST-1 assay) [1] | proliferation of cells (WST-1 assay) [2]
1 | B1 | significantly increases the proliferation; also recorded: increases the proliferation of colon cancer cells | –
2 | B2 | effect on proliferation is significantly more pronounced | –
3 | B3 | – | significantly increases the proliferation
4 | B4 | – | significantly increases the proliferation
5 | B5 | – | significantly increases the proliferation
